# Assay results taken from US20160272693A1 (ZEALAND PHARMA A S, published 2016).
# *1 amine or outer side, *2 acyl side, *3 side chain or, on linkers, in order; H or OH if unused. Bridges are numbered along the chain shown (N, C = ends). [ ]: non-standard residue; d: D form. The star is where a group is joined. C20 diacid = O=C(O)CCCCCCCCCCCCCCCCCCC(=O)*; γGlu = O=C(O)[C@H](CCC(=O)[*:2])N[*:1]; Hyp = O=C(O)[C@@H]1C[C@@H](O)CN1; NMeI = CC[C@H](C)[C@H](NC)C(=O)O; Sar = CNCC(=O)O
# T1: human amylin receptor 3 (hAMYR3), hCTR2 co-expressed with human receptor activity modifying protein 3 (hRAMP3) (human, UniProt P30988 25-474; O60896 24-148)
# T1 sequence (looked up) 1: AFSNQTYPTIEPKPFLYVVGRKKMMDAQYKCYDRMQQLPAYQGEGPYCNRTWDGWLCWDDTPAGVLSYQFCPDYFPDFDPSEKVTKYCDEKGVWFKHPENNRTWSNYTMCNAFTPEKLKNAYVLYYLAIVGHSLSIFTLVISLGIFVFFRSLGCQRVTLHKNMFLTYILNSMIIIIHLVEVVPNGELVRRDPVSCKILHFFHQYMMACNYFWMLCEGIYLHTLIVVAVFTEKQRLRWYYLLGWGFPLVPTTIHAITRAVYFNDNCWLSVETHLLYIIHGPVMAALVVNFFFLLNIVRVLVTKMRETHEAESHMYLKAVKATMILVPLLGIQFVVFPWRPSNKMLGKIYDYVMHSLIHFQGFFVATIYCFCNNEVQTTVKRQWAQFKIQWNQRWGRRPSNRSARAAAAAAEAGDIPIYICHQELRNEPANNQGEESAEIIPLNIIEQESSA
# T1 sequence (looked up) 2: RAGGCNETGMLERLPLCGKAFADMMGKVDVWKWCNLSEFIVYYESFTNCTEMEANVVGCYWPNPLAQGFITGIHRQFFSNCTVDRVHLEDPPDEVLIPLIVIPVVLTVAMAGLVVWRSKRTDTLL
# Molecular target: T1, human amylin receptor 3 (hAMYR3), hCTR2 …
# Assay: cell-based or functional assay
binder,measurement,value
{C20 diacid}-[γGlu]RCGTATCATERLAHFLQRSSF[Sar]A[NMeI]LSSTEVGSNT[Hyp]-NH2 (disulfide 3-8; SMILES CC[C@H](C)[C@@H](C(=O)N[C@@H](CC(C)C)C(=O)N[C@@H](CO)C(=O)N[C@@H](CO)C(=O)N[C@H](C(=O)N[C@@H](CCC(=O)O)C(=O)N[C@H](C(=O)NCC(=O)N[C@@H](CO)C(=O)N[C@@H](CC(N)=O)C(=O)N[C@H](C(=O)N1C[C@H](O)C[C@H]1C(N)=O)[C@@H](C)O)C(C)C)[C@@H](C)O)N(C)C(=O)[C@H](C)NC(=O)CN(C)C(=O)[C@H](Cc1ccccc1)NC(=O)[C@H](CO)NC(=O)[C@H](CO)NC(=O)[C@H](CCCNC(=N)N)NC(=O)[C@H](CCC(N)=O)NC(=O)[C@H](CC(C)C)NC(=O)[C@H](Cc1ccccc1)NC(=O)[C@H](Cc1c[nH]cn1)NC(=O)[C@H](C)NC(=O)[C@H](CC(C)C)NC(=O)[C@H](CCCNC(=N)N)NC(=O)[C@H](CCC(=O)O)NC(=O)[C@@H](NC(=O)[C@H](C)NC(=O)[C@@H]1CSSC[C@H](NC(=O)[C@H](CCCNC(=N)N)NC(=O)CC[C@H](NC(=O)CCCCCCCCCCCCCCCCCCC(=O)O)C(=O)O)C(=O)NCC(=O)N[C@@H]([C@@H](C)O)C(=O)N[C@@H](C)C(=O)N[C@@H]([C@@H](C)O)C(=O)N1)[C@@H](C)O) [[19CD]-isoGlu-R-C( )-GTAT-C( )-ATERLAHFLQRSSF-Gly(Me)-A-Ile(Me)-LSSTEVGSNT-Hyp-NH2 (Compd. 7)],hAMYR3 EC50 (nM); cAMP induction,0.34 nM
{C20 diacid}-[γGlu]RCNTATCATQRLAHFLQRSSF[Sar]A[NMeI]LSSTEVGSST[Hyp]-NH2 (disulfide 3-8; SMILES CC[C@H](C)[C@@H](C(=O)N[C@@H](CC(C)C)C(=O)N[C@@H](CO)C(=O)N[C@@H](CO)C(=O)N[C@H](C(=O)N[C@@H](CCC(=O)O)C(=O)N[C@H](C(=O)NCC(=O)N[C@@H](CO)C(=O)N[C@@H](CO)C(=O)N[C@H](C(=O)N1C[C@H](O)C[C@H]1C(N)=O)[C@@H](C)O)C(C)C)[C@@H](C)O)N(C)C(=O)[C@H](C)NC(=O)CN(C)C(=O)[C@H](Cc1ccccc1)NC(=O)[C@H](CO)NC(=O)[C@H](CO)NC(=O)[C@H](CCCNC(=N)N)NC(=O)[C@H](CCC(N)=O)NC(=O)[C@H](CC(C)C)NC(=O)[C@H](Cc1ccccc1)NC(=O)[C@H](Cc1c[nH]cn1)NC(=O)[C@H](C)NC(=O)[C@H](CC(C)C)NC(=O)[C@H](CCCNC(=N)N)NC(=O)[C@H](CCC(N)=O)NC(=O)[C@@H](NC(=O)[C@H](C)NC(=O)[C@@H]1CSSC[C@H](NC(=O)[C@H](CCCNC(=N)N)NC(=O)CC[C@H](NC(=O)CCCCCCCCCCCCCCCCCCC(=O)O)C(=O)O)C(=O)N[C@@H](CC(N)=O)C(=O)N[C@@H]([C@@H](C)O)C(=O)N[C@@H](C)C(=O)N[C@@H]([C@@H](C)O)C(=O)N1)[C@@H](C)O) [[19CD]-isoGlu-R-C( )-NTAT-C( )-ATQRLAHFLQRSSF-Gly(Me)-A-Ile(Me)-LSSTEVGSST-Hyp-NH2 (Compd. 69)],hAMYR3 EC50 (nM); cAMP induction,0.17 nM
{C20 diacid}-[γGlu]RCPTATCATERLAHFLQRSSF[Sar]A[NMeI]LSSTEVGSST[Hyp]-NH2 (disulfide 3-8; SMILES CC[C@H](C)[C@@H](C(=O)N[C@@H](CC(C)C)C(=O)N[C@@H](CO)C(=O)N[C@@H](CO)C(=O)N[C@H](C(=O)N[C@@H](CCC(=O)O)C(=O)N[C@H](C(=O)NCC(=O)N[C@@H](CO)C(=O)N[C@@H](CO)C(=O)N[C@H](C(=O)N1C[C@H](O)C[C@H]1C(N)=O)[C@@H](C)O)C(C)C)[C@@H](C)O)N(C)C(=O)[C@H](C)NC(=O)CN(C)C(=O)[C@H](Cc1ccccc1)NC(=O)[C@H](CO)NC(=O)[C@H](CO)NC(=O)[C@H](CCCNC(=N)N)NC(=O)[C@H](CCC(N)=O)NC(=O)[C@H](CC(C)C)NC(=O)[C@H](Cc1ccccc1)NC(=O)[C@H](Cc1c[nH]cn1)NC(=O)[C@H](C)NC(=O)[C@H](CC(C)C)NC(=O)[C@H](CCCNC(=N)N)NC(=O)[C@H](CCC(=O)O)NC(=O)[C@@H](NC(=O)[C@H](C)NC(=O)[C@@H]1CSSC[C@H](NC(=O)[C@H](CCCNC(=N)N)NC(=O)CC[C@H](NC(=O)CCCCCCCCCCCCCCCCCCC(=O)O)C(=O)O)C(=O)N2CCC[C@H]2C(=O)N[C@@H]([C@@H](C)O)C(=O)N[C@@H](C)C(=O)N[C@@H]([C@@H](C)O)C(=O)N1)[C@@H](C)O) [[19CD]-isoGlu-R-C( )-PTAT-C( )-ATERLAHFLQRSSF-Gly(Me)-A-Ile(Me)-LSSTEVGSST-Hyp-NH2 (Compd. 70)],hAMYR3 EC50 (nM); cAMP induction,0.36 nM
